Experimental data from PMC5601999.

How the values were obtained:
FGF2-Y81pCMF-GFP (human) [1] = experiment: z-scan fluorescence correlation spectroscopy (brightness analysis); as a2; GUVs without membrane pores, protein surface concentration ≤0.4 nmol/m^2
FGF2-Y81pCMF-GFP (human) [2] = experiment: z-scan fluorescence correlation spectroscopy (brightness analysis); as a2; GUVs containing membrane pores, protein surface concentration smaller than 0.4 nmol/m^2
FGF2-Y81pCMF-GFP (human) [3] = experiment: z-scan fluorescence correlation spectroscopy (brightness analysis); protein on single GUVs with a plasma membrane-like lipid composition containing PI(4,5)P2, pre-incubated at least 30 min; average oligomeric state = cluster brightness / monomer brightness; GUVs containing membrane pores, protein surface concentration larger than 0.4 nmol/m^2

Row | stoichiometry N (average oligomeric state) (FGF2-Y81pCMF-GFP (human) [1]) | stoichiometry N (average oligomeric state) (FGF2-Y81pCMF-GFP (human) [2]) | stoichiometry N (average oligomeric state) (FGF2-Y81pCMF-GFP (human) [3]) | stoichiometry N (FGF2-Y81pCMF-GFP (human) [3]) [subunits] | Substance
1 | 5.22 | 5.24 | 9.23 | – | FGF2-Y81pCMF-GFP
2 | – | – | – | 8 to 12 | FGF2-Y81pCMF-GFP (natural protein)
